{
  "source": "patent US20240124608A1",
  "about": "(Johns Hopkins, published 2024)",
  "binders": {"B1": {"name": "anti-TRBC1 scFv C1 (Jovi-1) (scFv, V domains shown)", "VH": "EVRLQQSGPDLIKPGASVKMSCKASGYTFTGYVMHWVKQRPGQGLEWIGFINPYNDDIQSNERFRGKATLTSDKSSTTAYMELSSLTSEDSAVYYCARGAGYNFDGAYRFFDFWGQGTTLTVSS", "VL": "DVVMTQSPLSLPVSLGDQASISCRSSQRLVHSNGNTYLHWYLQKPGQSPKLLIYRVSNRFPGVPDRFSGSGSGTDFTLKISRVEAEDLGIYFCSQSTHVPYTFGGGTKLEIKR", "notes": "also called αTRBC1 scFv"}, "B2": {"name": "anti-CD3 scFv UCHT1.v9 (scFv, V domains shown)", "VH": "EVQLVESGGGLVQPGGSLRLSCAASGYSFTGYTMNWVRQAPGKGLEWVALINPYKGVSTYNQKFKDRFTISVDKSKNTAYLQMNSLRAEDTAVYYCARSGYYGDSDWYFDVWGQGTLVTVSS", "VL": "DIQMTQSPSSLSASVGDRVTITCRASQDIRNYLNWYQQKPGKAPKLLIYYTSRLESGVPSRFSGSGSGTDYTLTISSLQPEDFATYYCQQGNTLPWTFGQGTKVEIK", "notes": "also called αCD3 scFv"}, "B3": {"name": "TRBC1-CD3 bispecific antibody (bispecific antibody, V domains shown)", "VL 1": "B1 VL", "VH 1": "B1 VH", "VL 2": "B2 VL", "VH 2": "B2 VH", "notes": "It was nickel purified, so a His tag is implied; also called αC1-CD3; anti-C1-CD3"}, "B4": {"name": "TRBC1-TRBC1 #3 bispecific antibody (bispecific antibody, V domains shown)", "VH": "B1 VH", "VL": "B1 VL", "notes": "A single polypeptide made by linking two anti-TRBC1 scFvs, with G4S and (G4S)3 linkers and a poly-histidine tail; also called anti-C1 #3"}, "B5": {"name": "TRBC1-TRBC1 #4 bispecific antibody (bispecific antibody, V domains shown)", "VH": "B1 VH", "VL": "B1 VL", "notes": "A single polypeptide made by linking two anti-TRBC1 scFvs, with G4S and (G4S)3 linkers and a poly-histidine tail; also called anti-C1 #4"}},
  "key": {"[1]": {"target": "TRBC1 polypeptide (form not stated, target of the affinity printed for scFv C1) (UniProt P01850 1-149, limits assumed)", "sequence (P01850 1-149 limits assumed)": "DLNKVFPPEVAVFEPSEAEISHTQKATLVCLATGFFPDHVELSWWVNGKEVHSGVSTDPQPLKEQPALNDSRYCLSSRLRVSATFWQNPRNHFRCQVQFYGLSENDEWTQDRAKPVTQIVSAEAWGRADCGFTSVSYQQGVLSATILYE", "experiment": "not stated; column head 'Affinity' in the table of scFv sequences"}, "[2]": {"target": "CD3 polypeptide (form not stated, target of the affinity printed for scFv UCHT1.v9) (UniProt P07766 23-126)", "sequence (P07766 23-126)": "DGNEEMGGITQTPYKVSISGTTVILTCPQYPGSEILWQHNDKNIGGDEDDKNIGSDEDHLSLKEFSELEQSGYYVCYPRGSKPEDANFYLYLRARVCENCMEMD", "experiment": "not stated; column head 'Affinity' in the table of scFv sequences"}, "[3]": {"target": "T1, TRBC1 (T cell receptor β chain constant region 1) on Jurkat cells and TRBC1^+ healthy human T cells (human, UniProt P01850 1-176)", "T1 construct": "whole, on cells; This is the constant region of the TCR β chain carried by the cell's own rearranged TCR; The rest of the TCR is not specified; also called TRBC1 polypeptide", "T1 sequence (P01850 whole entry)": "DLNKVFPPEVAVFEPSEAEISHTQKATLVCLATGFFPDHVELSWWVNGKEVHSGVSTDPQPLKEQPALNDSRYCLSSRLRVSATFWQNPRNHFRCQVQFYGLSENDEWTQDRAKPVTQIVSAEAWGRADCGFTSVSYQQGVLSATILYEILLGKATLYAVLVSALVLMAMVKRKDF", "experiment": "flow cytometry on Jurkat cells and healthy human T cells"}, "[4]": {"target": "T2, TRBC2 (T cell receptor β chain constant region 2) on HPB-ALL cells (human, UniProt A0A5B9 1-178)", "T2 construct": "whole, on cells; This is the constant region of the TCR β chain carried by the cell's own rearranged TCR; also called TRBC2 polypeptide", "T2 sequence (A0A5B9 whole entry)": "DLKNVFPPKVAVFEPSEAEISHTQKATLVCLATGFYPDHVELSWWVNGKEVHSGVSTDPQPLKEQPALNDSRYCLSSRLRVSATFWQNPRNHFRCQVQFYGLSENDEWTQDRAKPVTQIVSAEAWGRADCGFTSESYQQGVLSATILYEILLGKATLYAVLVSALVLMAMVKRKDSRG", "experiment": "flow cytometry on HPB-ALL cells (express TRBC2)"}},
  "data": [
    {"binder": "B1", "values": [
      {"measurement": "Kd", "setting": "[1]", "result": 0.4, "unit": "nM"}
    ]},
    {"binder": "B2", "values": [
      {"measurement": "Kd", "setting": "[2]", "result": 4.7, "unit": "nM"}
    ]},
    {"binder": "B3", "values": [
      {"measurement": "binding result", "setting": "[3]", "result": "binds"}
    ]},
    {"binder": "B4", "values": [
      {"measurement": "binding result", "setting": "[4]", "result": "no binding"}
    ]},
    {"binder": "B5", "values": [
      {"measurement": "binding result", "setting": "[4]", "result": "no binding"}
    ]}
  ]
}
